# Experimental data published in the supplement of paper PMC10065799, “High-throughput profiling of sequence recognition by tyrosine kinases and SH2 domains using bacterial peptide display” (eLife, 2023).
# How the values were obtained:
# [1] = test system: AncSZ; experiment: phosphorylation enrichment, bacterial display (enrichment ratio); higher = better substrate or ligand; peptides without Tyr show the background
# [2] = target: EPHB1 (UniProt P54762); experiment: as above
# [3] = target: EPHB2 (UniProt P29323); experiment: as above
# [4] = target: FGFR1 (UniProt P11362); experiment: as above
# Chain of FGFR1 (P11362 whole entry, looked up): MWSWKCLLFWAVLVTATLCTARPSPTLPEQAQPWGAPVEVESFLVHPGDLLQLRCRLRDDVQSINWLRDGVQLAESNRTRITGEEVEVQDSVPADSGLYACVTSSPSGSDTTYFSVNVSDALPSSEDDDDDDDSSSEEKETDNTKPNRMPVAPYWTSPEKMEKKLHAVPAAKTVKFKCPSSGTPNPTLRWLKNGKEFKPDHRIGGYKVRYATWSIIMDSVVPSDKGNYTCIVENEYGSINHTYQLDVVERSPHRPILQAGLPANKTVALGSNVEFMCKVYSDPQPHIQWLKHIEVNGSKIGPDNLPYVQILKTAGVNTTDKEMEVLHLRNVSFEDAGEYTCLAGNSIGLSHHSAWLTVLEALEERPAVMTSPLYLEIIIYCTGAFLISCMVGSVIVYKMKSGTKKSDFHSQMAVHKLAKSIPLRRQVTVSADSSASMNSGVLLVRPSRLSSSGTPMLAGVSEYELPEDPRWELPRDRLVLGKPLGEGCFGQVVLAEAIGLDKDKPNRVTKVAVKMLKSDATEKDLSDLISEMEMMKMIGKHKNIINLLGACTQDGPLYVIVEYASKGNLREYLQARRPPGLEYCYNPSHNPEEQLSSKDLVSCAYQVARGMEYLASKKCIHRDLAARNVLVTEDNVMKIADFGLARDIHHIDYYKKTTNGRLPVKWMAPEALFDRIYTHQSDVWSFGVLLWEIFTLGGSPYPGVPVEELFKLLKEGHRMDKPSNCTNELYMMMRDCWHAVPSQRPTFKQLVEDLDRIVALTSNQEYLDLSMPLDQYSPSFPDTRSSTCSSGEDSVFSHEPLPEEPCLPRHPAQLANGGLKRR
# [5] = target: FGFR3 (UniProt P22607); experiment: as above
# Chain of FGFR3 (P22607 whole entry, looked up): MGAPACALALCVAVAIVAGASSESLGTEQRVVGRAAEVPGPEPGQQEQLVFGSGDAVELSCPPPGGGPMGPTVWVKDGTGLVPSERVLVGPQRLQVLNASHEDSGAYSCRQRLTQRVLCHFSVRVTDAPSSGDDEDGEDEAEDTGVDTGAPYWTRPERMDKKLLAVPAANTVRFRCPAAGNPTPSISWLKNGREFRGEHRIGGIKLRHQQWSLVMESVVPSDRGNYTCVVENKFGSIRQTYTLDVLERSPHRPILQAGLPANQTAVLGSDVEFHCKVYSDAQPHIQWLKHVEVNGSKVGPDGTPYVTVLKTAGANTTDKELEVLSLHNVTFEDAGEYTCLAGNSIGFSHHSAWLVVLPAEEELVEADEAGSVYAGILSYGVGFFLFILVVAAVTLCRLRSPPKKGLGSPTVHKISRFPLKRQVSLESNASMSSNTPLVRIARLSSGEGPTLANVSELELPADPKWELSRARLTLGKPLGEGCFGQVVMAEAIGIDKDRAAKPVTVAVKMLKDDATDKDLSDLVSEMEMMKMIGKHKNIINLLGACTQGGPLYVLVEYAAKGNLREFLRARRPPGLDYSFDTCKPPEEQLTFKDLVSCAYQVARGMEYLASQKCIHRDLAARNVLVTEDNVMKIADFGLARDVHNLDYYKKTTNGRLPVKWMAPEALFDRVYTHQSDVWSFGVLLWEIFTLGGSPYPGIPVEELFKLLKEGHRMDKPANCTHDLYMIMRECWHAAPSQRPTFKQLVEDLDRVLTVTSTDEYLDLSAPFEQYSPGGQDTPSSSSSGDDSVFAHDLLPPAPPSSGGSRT
# [6] = test system: Fer (mouse); experiment: as above
# [7] = target: Fes (UniProt P07332); experiment: as above
# Chain of Fes (P07332 whole entry, looked up): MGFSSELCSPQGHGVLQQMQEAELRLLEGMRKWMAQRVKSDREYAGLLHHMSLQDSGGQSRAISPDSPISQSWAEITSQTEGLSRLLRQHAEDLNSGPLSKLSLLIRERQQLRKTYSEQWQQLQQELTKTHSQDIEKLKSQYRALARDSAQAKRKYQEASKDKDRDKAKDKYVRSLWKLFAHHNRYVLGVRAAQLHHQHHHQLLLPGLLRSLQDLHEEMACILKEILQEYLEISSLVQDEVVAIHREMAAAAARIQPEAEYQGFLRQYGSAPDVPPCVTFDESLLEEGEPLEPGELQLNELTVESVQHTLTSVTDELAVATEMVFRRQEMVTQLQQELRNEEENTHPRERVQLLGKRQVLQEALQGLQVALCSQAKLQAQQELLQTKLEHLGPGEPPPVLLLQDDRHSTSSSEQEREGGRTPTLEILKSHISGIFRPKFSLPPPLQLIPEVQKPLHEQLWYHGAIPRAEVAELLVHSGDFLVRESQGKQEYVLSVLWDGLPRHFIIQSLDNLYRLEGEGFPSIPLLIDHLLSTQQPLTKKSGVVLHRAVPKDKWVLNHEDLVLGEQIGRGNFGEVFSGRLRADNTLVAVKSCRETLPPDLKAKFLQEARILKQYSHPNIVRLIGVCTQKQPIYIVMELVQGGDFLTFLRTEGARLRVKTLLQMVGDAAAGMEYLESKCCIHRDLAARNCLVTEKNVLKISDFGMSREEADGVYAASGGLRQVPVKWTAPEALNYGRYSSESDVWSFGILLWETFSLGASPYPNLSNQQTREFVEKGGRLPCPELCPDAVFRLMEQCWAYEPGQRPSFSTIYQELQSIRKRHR
# [8] = target: Fyn (UniProt P06241); experiment: as above
# [9] = target: Hck (UniProt P08631); experiment: as above
# [10] = target: Jak2 (UniProt O60674); experiment: as above
# [11] = target: MERTK (UniProt Q12866); experiment: as above
# Chain of MERTK (Q12866 whole entry, looked up): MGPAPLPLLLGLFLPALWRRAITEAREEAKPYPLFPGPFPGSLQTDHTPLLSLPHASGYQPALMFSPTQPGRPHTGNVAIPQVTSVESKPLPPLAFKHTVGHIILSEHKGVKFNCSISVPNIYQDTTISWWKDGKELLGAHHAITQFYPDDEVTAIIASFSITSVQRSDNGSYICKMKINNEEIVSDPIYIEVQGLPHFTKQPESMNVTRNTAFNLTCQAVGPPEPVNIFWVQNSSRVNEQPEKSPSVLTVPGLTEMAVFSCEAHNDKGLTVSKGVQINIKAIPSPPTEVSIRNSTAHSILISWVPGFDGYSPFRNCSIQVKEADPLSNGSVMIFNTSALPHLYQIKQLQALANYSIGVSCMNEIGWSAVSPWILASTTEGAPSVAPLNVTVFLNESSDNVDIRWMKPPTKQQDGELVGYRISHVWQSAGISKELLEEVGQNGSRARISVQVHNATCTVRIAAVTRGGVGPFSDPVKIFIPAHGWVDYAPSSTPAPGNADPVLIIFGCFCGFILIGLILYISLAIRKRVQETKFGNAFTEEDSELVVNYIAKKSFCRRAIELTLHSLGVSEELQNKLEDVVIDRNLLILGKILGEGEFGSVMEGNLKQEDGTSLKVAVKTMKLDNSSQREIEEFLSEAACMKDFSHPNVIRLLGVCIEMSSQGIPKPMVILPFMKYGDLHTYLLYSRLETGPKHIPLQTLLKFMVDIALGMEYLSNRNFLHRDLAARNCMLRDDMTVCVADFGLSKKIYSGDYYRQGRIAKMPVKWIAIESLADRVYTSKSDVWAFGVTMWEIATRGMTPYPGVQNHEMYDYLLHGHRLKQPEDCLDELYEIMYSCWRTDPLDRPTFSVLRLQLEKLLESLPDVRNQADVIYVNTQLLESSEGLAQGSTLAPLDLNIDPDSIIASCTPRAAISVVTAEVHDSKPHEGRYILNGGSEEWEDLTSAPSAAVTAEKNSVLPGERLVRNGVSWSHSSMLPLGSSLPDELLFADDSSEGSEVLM
# [12] = test system: c-Abl (mouse); experiment: as above
# [13] = test system: c-Src; experiment: as above
# [14] = target: Grb2 SH2 (UniProt P62993); experiment: SH2 binding enrichment of the phosphorylated peptide, bacterial display (enrichment ratio); higher = better substrate or ligand; peptides without Tyr show the background
# Chain of Grb2 SH2 (P62993 whole entry, looked up): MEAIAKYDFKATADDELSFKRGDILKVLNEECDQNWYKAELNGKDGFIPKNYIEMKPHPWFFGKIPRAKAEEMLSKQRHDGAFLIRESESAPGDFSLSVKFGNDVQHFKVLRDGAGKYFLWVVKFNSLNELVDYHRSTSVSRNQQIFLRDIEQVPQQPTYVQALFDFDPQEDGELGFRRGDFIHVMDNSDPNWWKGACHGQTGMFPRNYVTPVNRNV
# [15] = target: SHP2-C SH2; experiment: as above
# [16] = target: c-Src SH2; experiment: as above
# 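Throughout, for SH2 binding enrichment of the phosphorylated peptide, bacterial display: peptide library displayed on the E. coli surface as eCPX fusions, selected cells deep-sequenced, score is each peptide's frequency after selection divided by its frequency in the input.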
# 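Throughout, for phosphorylation enrichment, bacterial display: 11-residue human phosphosite peptides and single-mutation variants displayed on the E. coli surface, counted by deep sequencing, each peptide's frequency after selection divided by its frequency in the unselected input library; frequency after pTyr selection over input frequency; kinase dosed for 20-30% of maximal phosphorylation in three min.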
# Chain of EPHB1 (P54762 whole entry, looked up): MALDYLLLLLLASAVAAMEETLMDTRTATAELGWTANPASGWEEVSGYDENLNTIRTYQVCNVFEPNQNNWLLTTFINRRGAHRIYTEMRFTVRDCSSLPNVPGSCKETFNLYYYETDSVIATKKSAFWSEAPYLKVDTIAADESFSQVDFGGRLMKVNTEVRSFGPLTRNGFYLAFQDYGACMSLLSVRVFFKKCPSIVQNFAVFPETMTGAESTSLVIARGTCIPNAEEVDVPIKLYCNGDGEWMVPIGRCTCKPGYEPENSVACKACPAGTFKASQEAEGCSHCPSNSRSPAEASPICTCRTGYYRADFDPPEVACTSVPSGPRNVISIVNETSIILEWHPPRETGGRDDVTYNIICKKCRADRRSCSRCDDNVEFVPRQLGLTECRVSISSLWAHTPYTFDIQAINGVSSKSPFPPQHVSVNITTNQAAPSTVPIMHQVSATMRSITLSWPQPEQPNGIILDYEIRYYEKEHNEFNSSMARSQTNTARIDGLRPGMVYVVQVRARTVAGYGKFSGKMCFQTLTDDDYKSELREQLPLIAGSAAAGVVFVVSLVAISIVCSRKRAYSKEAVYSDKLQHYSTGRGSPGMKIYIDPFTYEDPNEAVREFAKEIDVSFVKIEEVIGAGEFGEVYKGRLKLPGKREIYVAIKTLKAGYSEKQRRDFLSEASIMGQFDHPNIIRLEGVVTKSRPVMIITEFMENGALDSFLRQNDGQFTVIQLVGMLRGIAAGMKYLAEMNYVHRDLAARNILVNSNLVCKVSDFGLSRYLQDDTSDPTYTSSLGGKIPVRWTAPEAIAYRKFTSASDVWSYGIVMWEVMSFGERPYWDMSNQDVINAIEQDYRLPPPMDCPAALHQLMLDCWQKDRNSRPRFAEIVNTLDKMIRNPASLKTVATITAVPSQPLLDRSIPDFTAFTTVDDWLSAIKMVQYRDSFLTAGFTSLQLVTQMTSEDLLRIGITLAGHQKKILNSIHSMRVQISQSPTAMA
Sequence,phosphorylation enrichment [1],phosphorylation enrichment [2],phosphorylation enrichment [3],phosphorylation enrichment [4],phosphorylation enrichment [5],phosphorylation enrichment [6],phosphorylation enrichment [7],phosphorylation enrichment [8],phosphorylation enrichment [9],phosphorylation enrichment [10],phosphorylation enrichment [11],phosphorylation enrichment [12],phosphorylation enrichment [13],SH2 binding enrichment [14],SH2 binding enrichment [15],SH2 binding enrichment [16]
KKRRSYGNSSD [SELENOK_Y52],0.554,0.472,0.394,0.383,0.395,0.417,0.582,0.448,0.511,0.475,0.51,0.479,0.525,0.601,0.525,0.376
KLFFHYDPKLC [INSR_Y457_N458D],1.01,0.643,0.516,0.423,0.67,0.47,1.25,0.342,0.327,0.961,0.382,0.948,0.361,0.702,0.709,0.542
KLFIEYPTGSG [IRF2BPL_Y423],0.636,0.478,0.565,0.412,0.486,0.301,0.775,0.444,0.431,0.653,0.374,0.521,0.402,0.82,1,0.505
KLIETYFSKNY [PLP1_Y50],0.701,0.371,0.329,0.334,0.453,0.285,0.732,0.355,0.52,0.719,0.374,0.574,0.41,0.716,0.461,0.37
KLNNEYLELNY [MME_Y497],1.08,0.925,1.01,4.67,3.27,0.417,0.892,0.633,0.627,0.861,0.449,0.635,0.679,0.931,0.783,0.553
KLPYPYDDPFS [GPX2_Y127],1.09,0.458,0.532,0.507,0.745,0.434,1.06,0.534,0.589,0.954,0.515,0.705,0.546,0.97,0.544,3.58
KLQKFYRQNPD [EHHADH_Y683_YF],0.499,0.545,0.348,0.343,0.416,0.387,0.498,0.418,0.443,0.393,0.452,0.581,0.409,0.719,0.647,0.418
KMATAYIRRMS [BCO1_Y264],0.68,0.359,0.495,0.461,0.431,0.362,0.572,0.425,0.425,0.58,0.468,0.544,0.514,0.593,0.497,0.389
KMKGEYYRYLA [YWHAG_Y130_D129E],0.981,0.639,0.717,4.78,3.14,0.409,0.961,0.607,1.09,1.68,0.957,1.34,1.07,1.65,1.16,1.25
KNGSNYVVKGN [KIT_Y823_D820G],0.526,0.346,0.38,0.435,0.368,0.375,0.576,0.449,0.45,0.484,0.466,0.411,0.482,0.837,0.782,0.527
KPEKTYGLRNE [CEP43_Y267_K271N],0.494,0.39,0.362,0.394,0.371,0.321,0.569,0.37,0.406,0.512,0.397,0.551,0.439,0.594,0.758,0.534
KPLMPCMRFSR [SMARCE1_Y73_Y73C_YF],0.92,0.39,0.448,0.393,0.502,0.443,0.916,0.466,0.439,0.707,0.506,0.88,0.469,0.858,0.912,0.477
KPLMPSMRYSR [SMARCE1_Y73_Y73S],0.823,0.328,0.445,0.405,0.467,0.377,0.756,0.383,0.462,0.555,0.467,0.49,0.498,0.717,0.499,0.441
KPMDTYYDSTR [DYNC2H1_Y2230],0.874,0.632,0.675,0.998,0.76,0.447,0.774,0.543,1.13,0.545,0.498,0.678,0.7,0.903,0.66,0.898
KQLYAYKMLMA [TMC2_Y209],0.629,0.62,0.445,0.515,0.496,0.384,0.72,0.39,0.458,0.669,0.368,0.57,0.383,1.32,1.4,0.842
KRFRIYHLAIS [BRCA2_Y3009_T3013I_YF],0.899,0.612,0.524,0.644,0.625,0.48,0.942,0.55,0.494,0.86,0.484,1.38,0.448,1.81,1.43,1.56
KRGVSYILKLA [SERPINB1_Y84_A82V],1.4,0.504,0.557,0.534,0.676,0.524,1.6,0.426,0.558,1.34,0.446,0.768,0.412,1.28,0.797,0.763

Sequence,phosphorylation enrichment [1],phosphorylation enrichment [2],phosphorylation enrichment [3],phosphorylation enrichment [4],phosphorylation enrichment [5],phosphorylation enrichment [6],phosphorylation enrichment [7],phosphorylation enrichment [8],phosphorylation enrichment [9],phosphorylation enrichment [10],phosphorylation enrichment [11],phosphorylation enrichment [12],phosphorylation enrichment [13],SH2 binding enrichment [14],SH2 binding enrichment [15],SH2 binding enrichment [16]
KSEFAYEIFDK [MYOM2_Y1024_L1022F],1.34,0.527,0.573,0.564,0.664,0.543,1.04,0.797,0.561,1.01,0.967,0.746,2.1,0.613,0.63,1.08
KSVITYSPTTG [ITGB3BP_Y32],0.49,0.325,0.49,0.37,0.464,0.401,0.592,0.38,0.353,0.586,0.403,0.447,0.462,0.91,0.849,0.507
KVIDMYLMGCF [GABRB2_Y308_A304V],1.28,0.636,0.55,0.619,0.842,0.638,1.38,0.535,0.608,1.24,0.429,0.964,0.593,0.795,0.917,0.363
KVITDYYVDMK [MPP4_Y566],1.26,1.71,0.865,3.97,2.64,0.496,1.07,0.557,0.576,1.4,0.577,0.758,0.597,0.875,0.704,2.9
KVKPIYFHTRG [AR_Y916_Q920R],0.853,0.452,0.498,0.598,0.614,0.416,0.892,0.448,0.527,0.885,0.456,0.633,0.477,2.2,2.07,1.84
KVPRHYDDPGK [FOXG1_Y246],0.785,0.414,0.373,0.428,0.712,1.11,1.16,0.443,0.481,1.25,0.462,1.01,0.505,1.26,1.2,1.56
KWKQKYEESQS [MYH6_Y1462_E1457K],0.671,0.508,0.52,0.431,0.693,0.405,0.887,0.481,0.531,0.85,0.431,0.73,0.38,1.35,1.09,1.04
KWLEQYTQAIE [LSP1_Y234_Q229K],1.04,0.499,0.683,0.472,0.573,0.442,0.977,0.454,0.441,0.915,0.39,0.702,0.452,0.993,0.806,0.782
LAAAGYDVEKN [H1-3_Y72],0.909,0.463,0.482,0.51,0.658,0.436,1.03,0.493,0.692,0.711,0.54,0.582,0.365,0.723,0.791,0.484
LAARYYNWVSF [FLT4_Y1231],1.55,1.09,1.02,4.29,3.57,5.18,1.8,0.654,0.64,2.14,4.42,1.68,1,6.96,1.38,2.3
LALTVYADCLA [ABCA4_Y2063_G2059A],1.42,1.08,0.938,0.665,1.05,0.781,1.48,0.699,0.73,1.53,0.517,1.09,0.62,0.624,0.508,0.572
LARDMDDKEFF [MET_Y1230_Y1230D_YF],0.895,0.451,0.53,0.453,1.08,0.428,0.997,0.342,0.456,0.708,0.523,0.464,0.498,1.11,0.968,0.508
LARHMYDKEFF [MET_Y1230_D1228H_YF],0.78,0.355,0.438,0.606,0.55,0.29,1.08,0.404,0.399,0.646,0.559,0.524,0.688,0.7,0.65,0.546
LARHMYDKEYY [MET_Y1230_D1228H],1.17,0.693,0.811,0.799,0.813,0.671,0.933,0.638,0.825,0.883,0.597,0.687,0.73,1.25,1.43,1.15
LASSEYPVRRR [GALK1_Y236],0.62,0.542,0.472,0.45,0.496,0.363,0.612,0.543,0.514,0.475,0.526,0.448,0.572,0.512,0.426,0.336
LCRYGYANTSE [SI_Y1233],1.31,0.78,0.661,0.656,1.36,0.746,1.41,0.688,0.772,1.11,1.15,0.932,0.789,2,0.85,2.24
